System: FMC63
Experiment: CD19 variant binding to anti-CD19 antibody FMC63 (score)

Sequence of FMC63 (as listed by the source): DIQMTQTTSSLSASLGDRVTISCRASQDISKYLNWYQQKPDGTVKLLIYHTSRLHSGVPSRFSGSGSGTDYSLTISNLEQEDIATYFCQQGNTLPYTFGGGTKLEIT
Sequence of FMC63 (as listed by the source): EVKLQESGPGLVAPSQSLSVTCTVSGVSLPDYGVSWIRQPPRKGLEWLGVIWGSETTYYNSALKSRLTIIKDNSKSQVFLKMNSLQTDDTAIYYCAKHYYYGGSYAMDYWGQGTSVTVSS

B1: W262K: CD19 variant (protein)
chain: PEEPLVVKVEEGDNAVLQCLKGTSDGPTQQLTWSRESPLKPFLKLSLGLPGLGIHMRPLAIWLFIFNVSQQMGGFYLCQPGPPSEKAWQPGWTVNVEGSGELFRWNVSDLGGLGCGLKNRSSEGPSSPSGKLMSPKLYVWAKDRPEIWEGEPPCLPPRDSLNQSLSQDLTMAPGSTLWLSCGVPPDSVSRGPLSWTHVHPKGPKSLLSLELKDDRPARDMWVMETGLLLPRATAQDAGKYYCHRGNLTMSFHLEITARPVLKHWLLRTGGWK
Table 1A, CD19 single mutants (positions of SEQ ID NO:2)
  FMC63 Binding Score: 8.2 ± .7

B2: L59N/I61V/L63L: CD19 variant (protein)
chain: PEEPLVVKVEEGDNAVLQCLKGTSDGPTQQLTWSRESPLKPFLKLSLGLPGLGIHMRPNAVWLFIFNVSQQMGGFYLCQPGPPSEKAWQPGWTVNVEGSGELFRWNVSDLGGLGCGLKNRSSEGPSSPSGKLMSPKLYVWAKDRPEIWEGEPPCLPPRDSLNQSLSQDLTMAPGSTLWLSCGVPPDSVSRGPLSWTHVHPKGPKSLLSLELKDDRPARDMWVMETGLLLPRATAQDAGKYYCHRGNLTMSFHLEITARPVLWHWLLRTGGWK
Table 1B, CD19 triple mutants
  FMC63 Binding Score: 13.9 ± 3.2

B3: W62T/F64V/F66P: CD19 variant (protein)
chain: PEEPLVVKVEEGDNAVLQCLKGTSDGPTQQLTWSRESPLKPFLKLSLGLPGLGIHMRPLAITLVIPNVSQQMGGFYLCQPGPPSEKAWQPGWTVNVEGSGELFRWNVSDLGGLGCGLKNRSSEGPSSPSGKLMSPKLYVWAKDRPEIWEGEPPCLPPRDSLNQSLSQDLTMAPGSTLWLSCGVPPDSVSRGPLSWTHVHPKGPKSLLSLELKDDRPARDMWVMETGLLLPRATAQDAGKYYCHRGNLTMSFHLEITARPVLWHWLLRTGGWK
Table 1B, CD19 triple mutants
  FMC63 Binding Score: 16.6 ± 5.5

B4: W62D/F64L/F66P: CD19 variant (protein)
chain: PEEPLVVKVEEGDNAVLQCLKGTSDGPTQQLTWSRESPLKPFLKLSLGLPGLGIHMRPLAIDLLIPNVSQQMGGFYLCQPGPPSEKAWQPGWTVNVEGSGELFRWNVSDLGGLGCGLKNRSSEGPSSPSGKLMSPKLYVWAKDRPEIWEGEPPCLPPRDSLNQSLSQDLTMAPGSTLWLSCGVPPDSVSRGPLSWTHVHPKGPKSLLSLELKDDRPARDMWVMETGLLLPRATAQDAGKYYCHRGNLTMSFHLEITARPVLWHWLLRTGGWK
Table 1B, CD19 triple mutants
  FMC63 Binding Score: 16.3 ± 5.5

B5: W62Y/F64S/F66R: CD19 variant (protein)
chain: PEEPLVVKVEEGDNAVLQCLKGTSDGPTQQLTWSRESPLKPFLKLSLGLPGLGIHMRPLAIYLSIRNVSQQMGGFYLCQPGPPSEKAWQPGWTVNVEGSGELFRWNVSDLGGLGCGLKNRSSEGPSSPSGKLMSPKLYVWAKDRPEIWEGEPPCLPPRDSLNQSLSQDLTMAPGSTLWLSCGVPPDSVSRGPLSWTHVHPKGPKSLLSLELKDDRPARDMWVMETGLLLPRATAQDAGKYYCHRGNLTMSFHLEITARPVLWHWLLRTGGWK
Table 1B, CD19 triple mutants
  FMC63 Binding Score: 13.7 ± 3.2

B6: W62E/F64R/F66P: CD19 variant (protein)
chain: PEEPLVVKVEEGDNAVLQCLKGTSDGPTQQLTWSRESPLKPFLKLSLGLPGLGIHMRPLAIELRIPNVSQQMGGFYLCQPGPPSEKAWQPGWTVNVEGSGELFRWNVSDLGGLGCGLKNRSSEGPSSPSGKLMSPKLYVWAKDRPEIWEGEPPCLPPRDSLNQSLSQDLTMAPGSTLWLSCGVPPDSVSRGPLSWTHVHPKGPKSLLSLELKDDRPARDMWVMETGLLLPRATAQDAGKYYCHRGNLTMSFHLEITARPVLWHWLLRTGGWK
Table 1B, CD19 triple mutants
  FMC63 Binding Score: 16.5 ± 5.5

B7: W62E/F64E/F66V: CD19 variant (protein)
chain: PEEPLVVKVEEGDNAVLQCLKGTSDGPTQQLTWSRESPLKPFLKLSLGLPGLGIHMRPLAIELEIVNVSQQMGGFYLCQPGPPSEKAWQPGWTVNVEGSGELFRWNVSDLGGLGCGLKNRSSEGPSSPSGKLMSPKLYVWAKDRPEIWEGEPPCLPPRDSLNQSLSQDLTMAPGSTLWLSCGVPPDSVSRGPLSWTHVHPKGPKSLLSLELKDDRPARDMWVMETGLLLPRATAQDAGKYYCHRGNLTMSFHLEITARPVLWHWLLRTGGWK
Table 1B, CD19 triple mutants
  FMC63 Binding Score: 16.2 ± 5.5

B8: W62T/F64R/F66Q: CD19 variant (protein)
chain: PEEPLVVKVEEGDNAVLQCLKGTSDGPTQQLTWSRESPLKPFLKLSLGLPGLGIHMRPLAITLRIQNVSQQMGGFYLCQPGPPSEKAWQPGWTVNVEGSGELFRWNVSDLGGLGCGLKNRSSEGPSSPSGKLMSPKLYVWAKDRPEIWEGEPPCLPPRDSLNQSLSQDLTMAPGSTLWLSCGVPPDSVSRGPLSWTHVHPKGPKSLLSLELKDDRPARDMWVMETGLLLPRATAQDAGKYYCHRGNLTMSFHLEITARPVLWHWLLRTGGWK
Table 1B, CD19 triple mutants
  FMC63 Binding Score: 16.3 ± 5.5

B9: W62S/F64R/F66S: CD19 variant (protein)
chain: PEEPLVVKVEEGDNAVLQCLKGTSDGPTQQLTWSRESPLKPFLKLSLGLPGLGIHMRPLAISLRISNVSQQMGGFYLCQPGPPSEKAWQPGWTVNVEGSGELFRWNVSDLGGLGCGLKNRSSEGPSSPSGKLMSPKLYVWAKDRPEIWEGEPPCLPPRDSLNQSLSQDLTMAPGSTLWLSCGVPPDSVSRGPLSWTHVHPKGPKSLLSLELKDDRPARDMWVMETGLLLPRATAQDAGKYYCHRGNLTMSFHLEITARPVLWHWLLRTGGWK
Table 1B, CD19 triple mutants
  FMC63 Binding Score: 13.2 ± 2.1

B10: W62R/F64V/F66R: CD19 variant (protein)
chain: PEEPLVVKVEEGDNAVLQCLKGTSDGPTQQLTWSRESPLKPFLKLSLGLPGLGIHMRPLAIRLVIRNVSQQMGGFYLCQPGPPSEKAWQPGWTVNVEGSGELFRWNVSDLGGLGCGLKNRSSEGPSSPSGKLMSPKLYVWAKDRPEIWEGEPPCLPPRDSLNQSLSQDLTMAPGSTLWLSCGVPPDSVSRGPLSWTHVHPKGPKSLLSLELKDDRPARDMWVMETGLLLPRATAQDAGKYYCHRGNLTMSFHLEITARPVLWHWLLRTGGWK
Table 1B, CD19 triple mutants
  FMC63 Binding Score: 12.3 ± 1.6

B11: E224G/G226R/L228F: CD19 variant (protein)
chain: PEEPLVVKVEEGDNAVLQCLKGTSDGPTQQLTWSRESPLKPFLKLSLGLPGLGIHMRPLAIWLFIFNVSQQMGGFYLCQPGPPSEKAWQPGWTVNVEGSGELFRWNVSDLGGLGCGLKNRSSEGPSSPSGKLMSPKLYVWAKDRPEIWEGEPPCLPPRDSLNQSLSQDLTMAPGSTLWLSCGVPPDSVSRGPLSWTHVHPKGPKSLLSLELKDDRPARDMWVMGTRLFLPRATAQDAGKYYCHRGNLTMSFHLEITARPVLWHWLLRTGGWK
Table 1B, CD19 triple mutants
  FMC63 Binding Score: 12.8 ± 1.7

B12: E224G/G226D/L228V: CD19 variant (protein)
chain: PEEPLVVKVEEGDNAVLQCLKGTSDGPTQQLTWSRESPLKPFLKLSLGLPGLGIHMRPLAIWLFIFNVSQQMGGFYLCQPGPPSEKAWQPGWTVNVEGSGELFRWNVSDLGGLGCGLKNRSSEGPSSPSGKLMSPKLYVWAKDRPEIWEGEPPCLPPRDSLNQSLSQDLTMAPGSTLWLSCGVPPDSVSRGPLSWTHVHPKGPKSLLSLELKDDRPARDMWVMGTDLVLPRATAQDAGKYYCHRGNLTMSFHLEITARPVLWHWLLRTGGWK
Table 1B, CD19 triple mutants
  FMC63 Binding Score: 12. ± 1.2

B13: W62W/F64S/F66S: CD19 variant (protein)
chain: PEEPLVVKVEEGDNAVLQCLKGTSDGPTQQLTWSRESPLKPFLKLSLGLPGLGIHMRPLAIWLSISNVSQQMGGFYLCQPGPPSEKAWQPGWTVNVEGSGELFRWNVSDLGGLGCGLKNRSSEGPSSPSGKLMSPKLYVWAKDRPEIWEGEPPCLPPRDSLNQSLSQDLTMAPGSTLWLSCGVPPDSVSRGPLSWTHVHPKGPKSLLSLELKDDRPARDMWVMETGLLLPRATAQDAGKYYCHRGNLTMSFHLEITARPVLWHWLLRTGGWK
Table 1B, CD19 triple mutants
  FMC63 Binding Score: 14. ± 3.2

B14: E224G/G226E/L228I: CD19 variant (protein)
chain: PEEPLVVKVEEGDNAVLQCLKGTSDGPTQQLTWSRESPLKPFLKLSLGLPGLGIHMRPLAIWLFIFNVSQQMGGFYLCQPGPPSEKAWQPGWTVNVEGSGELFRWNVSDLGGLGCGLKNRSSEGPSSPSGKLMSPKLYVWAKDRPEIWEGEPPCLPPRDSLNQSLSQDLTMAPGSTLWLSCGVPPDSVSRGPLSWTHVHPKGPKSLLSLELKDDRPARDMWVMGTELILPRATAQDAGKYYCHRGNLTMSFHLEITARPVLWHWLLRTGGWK
Table 1B, CD19 triple mutants
  FMC63 Binding Score: 14.3 ± 3.4

B15: W62E/F64V/F66V: CD19 variant (protein)
chain: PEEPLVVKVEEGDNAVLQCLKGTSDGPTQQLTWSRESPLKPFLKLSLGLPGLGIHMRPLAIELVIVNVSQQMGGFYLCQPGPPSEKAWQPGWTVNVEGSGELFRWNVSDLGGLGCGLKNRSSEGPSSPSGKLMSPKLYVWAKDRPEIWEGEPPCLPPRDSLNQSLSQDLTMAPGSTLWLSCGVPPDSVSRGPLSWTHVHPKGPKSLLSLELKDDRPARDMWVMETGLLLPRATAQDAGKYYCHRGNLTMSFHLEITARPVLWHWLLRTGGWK
Table 1B, CD19 triple mutants
  FMC63 Binding Score: 13.4 ± 2.5

B16: W62A/F64R/F66L: CD19 variant (protein)
chain: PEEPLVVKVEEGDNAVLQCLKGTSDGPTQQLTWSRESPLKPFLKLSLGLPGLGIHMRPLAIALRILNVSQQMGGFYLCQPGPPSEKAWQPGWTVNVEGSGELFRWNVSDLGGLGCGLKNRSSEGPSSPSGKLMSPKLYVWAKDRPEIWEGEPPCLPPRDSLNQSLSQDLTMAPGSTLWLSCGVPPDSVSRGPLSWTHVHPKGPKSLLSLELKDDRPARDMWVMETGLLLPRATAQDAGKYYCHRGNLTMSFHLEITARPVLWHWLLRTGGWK
Table 1B, CD19 triple mutants
  FMC63 Binding Score: 13.1 ± 2.3

B17: W62E/F64W/F66R: CD19 variant (protein)
chain: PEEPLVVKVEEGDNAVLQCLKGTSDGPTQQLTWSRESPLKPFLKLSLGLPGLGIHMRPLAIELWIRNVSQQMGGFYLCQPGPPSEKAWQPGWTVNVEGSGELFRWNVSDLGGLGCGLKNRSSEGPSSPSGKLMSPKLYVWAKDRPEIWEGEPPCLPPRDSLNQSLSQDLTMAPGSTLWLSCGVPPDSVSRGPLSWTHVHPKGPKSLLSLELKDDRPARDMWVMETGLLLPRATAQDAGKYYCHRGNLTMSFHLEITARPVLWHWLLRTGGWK
Table 1B, CD19 triple mutants
  FMC63 Binding Score: 14.2 ± 3.2

— US20220387487A1, “COMPOSITIONS AND METHODS FOR TREATMENT OF CANCER” (Aleta Biotherapeutics Inc., priority 2019, published 2022)
